B1: DNA repair and recombination protein RAD54B (Homo sapiens), Q9Y620 (parent)
chain: MRRSAAPSQLQGNSFKKPKFIPPGRSNPGLNEEITKLNPDIKLFEGVAINNTFLPSQNDLRICSLNLPSEESTREINNRDNCSGKYCFEAPTLATLDPPHTVHSAPKEVAVSKEQEEKSDSLVKYFSVVWCKPSKKKHKKWEGDAVLIVKGKSFILKNLEGKDIGRGIGYKFKELEKIEEGQTLMICGKEIEVMGVISPDDFSSGRCFQLGGGSTAISHSSQVARKCFSNPFKSVCKPSSKENRQNDFQNCKPRHDPYTPNSLVMPRPDKNHQWVFNKNCFPLVDVVIDPYLVYHLRPHQKEGIIFLYECVMGMRMNGRCGAILADEMGLGKTLQCISLIWTLQCQGPYGGKPVIKKTLIVTPGSLVNNWKKEFQKWLGSERIKIFTVDQDHKVEEFIKSIFYSVLIISYEMLLRSLDQIKNIKFDLLICDEGHRLKNSAIKTTTALISLSCEKRIILTGTPIQNDLQEFFALIDFVNPGILGSLSSYRKIYEEPIILSREPSASEEEKELGERRAAELTCLTGLFILRRTQEIINKYLPPKIENVVFCRPGALQIELYRKLLNSQVVRFCLQGLLENSPHLICIGALKKLCNHPCLLFNSIKEKECSSTCDKNEEKSLYKGLLSVFPADYNPLLFTEKESGKLQVLSKLLAVIHELRPTEKVVLVSNYTQTLNILQEVCKRHGYAYTRLDGQTPISQRQQIVDGFNSQHSSFFIFLLSSKAGGVGLNLIGGSHLILYDIDWNPATDIQAMSRVWRDGQKYPVHIYRLLTTGTIEEKIYQRQISKQGLCGAVVDLTKTSEHIQFSVEELKNLFTLHESSDCVTHDLLDCECTGEEVHTGDSLEKFIVSRDCQLGPHHQKSNSLKPLSMSQLKQWKHFSGDHLNLTDPFLERITENVSFIFQNITTQATGT
partner: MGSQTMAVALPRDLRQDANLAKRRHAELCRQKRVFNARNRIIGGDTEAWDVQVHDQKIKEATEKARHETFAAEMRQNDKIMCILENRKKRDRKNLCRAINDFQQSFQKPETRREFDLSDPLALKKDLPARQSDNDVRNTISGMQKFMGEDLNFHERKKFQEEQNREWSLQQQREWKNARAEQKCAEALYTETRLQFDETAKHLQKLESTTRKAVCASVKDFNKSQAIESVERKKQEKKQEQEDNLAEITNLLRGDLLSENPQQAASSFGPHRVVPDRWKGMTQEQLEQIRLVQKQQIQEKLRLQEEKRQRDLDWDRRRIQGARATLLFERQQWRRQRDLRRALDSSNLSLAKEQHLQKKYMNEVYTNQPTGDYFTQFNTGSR
B2: Isoform 1 of Cyclin-dependent kinase 2-interacting protein (Homo sapiens), Q9BW66-1 (parent)
chain: MEAKTLGTVTPRKPVLSVSARKIKDNAADWHNLILKWETLNDAGFTTANNIANLKISLLNKDKIELDSSSPASKENEEKVCLEYNEELEKLCEELQATLDGLTKIQVKMEKLSSTTKGICELENYHYGEESKRPPLFHTWPTTHFYEVSHKLLEMYRKELLLKRTVAKELAHTGDPDLTLSYLSMWLHQPYVESDSRLHLESMLLETGHRAL
partner: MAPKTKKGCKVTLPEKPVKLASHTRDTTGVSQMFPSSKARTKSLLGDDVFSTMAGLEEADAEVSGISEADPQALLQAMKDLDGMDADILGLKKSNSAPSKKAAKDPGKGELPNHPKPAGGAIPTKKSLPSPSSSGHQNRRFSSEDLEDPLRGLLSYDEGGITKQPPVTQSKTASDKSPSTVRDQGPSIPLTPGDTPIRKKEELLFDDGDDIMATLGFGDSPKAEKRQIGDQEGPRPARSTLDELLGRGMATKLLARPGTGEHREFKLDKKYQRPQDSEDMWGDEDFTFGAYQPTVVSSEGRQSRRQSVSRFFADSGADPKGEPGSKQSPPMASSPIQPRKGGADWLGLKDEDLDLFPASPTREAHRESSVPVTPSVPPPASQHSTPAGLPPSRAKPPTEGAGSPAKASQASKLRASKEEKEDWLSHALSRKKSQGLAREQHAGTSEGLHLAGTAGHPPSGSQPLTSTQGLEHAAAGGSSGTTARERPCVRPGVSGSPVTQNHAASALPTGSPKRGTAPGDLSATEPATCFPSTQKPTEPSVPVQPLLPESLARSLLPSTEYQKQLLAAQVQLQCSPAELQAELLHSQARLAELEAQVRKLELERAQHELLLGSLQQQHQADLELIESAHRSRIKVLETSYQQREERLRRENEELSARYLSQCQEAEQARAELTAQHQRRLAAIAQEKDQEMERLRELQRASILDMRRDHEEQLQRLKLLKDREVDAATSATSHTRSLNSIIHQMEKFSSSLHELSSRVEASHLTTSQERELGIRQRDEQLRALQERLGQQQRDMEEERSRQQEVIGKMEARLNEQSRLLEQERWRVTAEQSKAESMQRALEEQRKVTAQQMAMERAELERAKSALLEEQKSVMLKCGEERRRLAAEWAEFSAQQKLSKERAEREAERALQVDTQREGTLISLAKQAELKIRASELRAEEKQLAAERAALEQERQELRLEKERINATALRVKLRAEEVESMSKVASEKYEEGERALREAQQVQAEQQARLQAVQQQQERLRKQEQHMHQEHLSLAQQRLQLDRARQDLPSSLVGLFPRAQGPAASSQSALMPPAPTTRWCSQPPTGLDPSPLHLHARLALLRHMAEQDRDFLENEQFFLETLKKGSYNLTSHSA
B3: Angiomotin (Homo sapiens), Q4VCS5 (parent)
chain: MRNSEEQPSGGTTVLQRLLQEQLRYGNPSENRSLLAIHQQATGNGPPFPSGSGNPGPQSDVLSPQDHHQQLVAHAARQEPQGQEIQSENLIMEKQLSPRMQNNEELPTYEEAKVQSQYFRGQQHASVGAAFYVTGVTNQKMRTEGRPSVQRLNPGKMHQDEGLRDLKQGHVRSLSERLMQMSLATSGVKAHPPVTSAPLSPPQPNDLYKNPTSSSEFYKAQGPLPNQHSLKGMEHRGPPPEYPFKGMPPQSVVCKPQEPGHFYSEHRLNQPGRTEGQLMRYQHPPEYGAARPAQDISLPLSARNSQPHSPTSSLTSGGSLPLLQSPPSTRLSPARHPLVPNQGDHSAHLPRPQQHFLPNQAHQGDHYRLSQPGLSQQQQQQQQQHHHHHHHQQQQQQQPQQQPGEAYSAMPRAQPSSASYQPVPADPFAIVSRAQQMVEILSDENRNLRQELEGCYEKVARLQKVETEIQRVSEAYENLVKSSSKREALEKAMRNKLEGEIRRMHDFNRDLRERLETANKQLAEKEYEGSEDTRKTISQLFAKNKESQREKEKLEAELATARSTNEDQRRHIEIRDQALSNAQAKVVKLEEELKKKQVYVDKVEKMQQALVQLQAACEKREQLEHRLRTRLERELESLRIQQRQGNCQPTNVSEYNAAALMELLREKEERILALEADMTKWEQKYLEENVMRHFALDAAATVAAQRDTTVISHSPNTSYDTALEARIQKEEEEILMANKRCLDMEGRIKTLHAQIIEKDAMIKVLQQRSRKEPSKTEQLSCMRPAKSLMSISNAGSGLLSHSSTLTGSPIMEEKRDDKSWKGSLGILLGGDYRAEYVPSTPSPVPPSTPLLSAHSKTGSRDCSTQTERGTESNKTAAVAPISVPAPVAAAATAAAITATAATITTTMVAAAPVAVAAAAAPAAAAAPSPATAAATAAAVSPAAAGQIPAAASVASAAAVAPSAAAAAAVQVAPAAPAPVPAPALVPVPAPAAAQASAPAQTQAPTSAPAVAPTPAPTPTPAVAQAEVPASPATGPGPHRLSIPSLTCNPDKTDGPVFHSNTLERKTPIQILGQEPDAEMVEYLI
partner: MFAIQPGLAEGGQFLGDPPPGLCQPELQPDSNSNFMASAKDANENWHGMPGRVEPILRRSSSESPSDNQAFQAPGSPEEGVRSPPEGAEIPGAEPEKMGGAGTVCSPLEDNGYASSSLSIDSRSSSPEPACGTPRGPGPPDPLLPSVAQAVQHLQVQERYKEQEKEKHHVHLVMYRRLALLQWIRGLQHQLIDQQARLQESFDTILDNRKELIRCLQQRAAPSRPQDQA
B4: Protein LDOC1 (Homo sapiens), O95751 (parent)
chain: MVDELVLLLHALLMRHRALSIENSQLMEQLRLLVCERASLLRQVRPPSCPVPFPETFNGESSRLPEFIVQTASYMLVNENRFCNDAMKVAFLISLLTGEAEEWVVPYIEMDSPILGDYRAFLDEMKQCFGWDDDEDDDDEEEEDDY
partner: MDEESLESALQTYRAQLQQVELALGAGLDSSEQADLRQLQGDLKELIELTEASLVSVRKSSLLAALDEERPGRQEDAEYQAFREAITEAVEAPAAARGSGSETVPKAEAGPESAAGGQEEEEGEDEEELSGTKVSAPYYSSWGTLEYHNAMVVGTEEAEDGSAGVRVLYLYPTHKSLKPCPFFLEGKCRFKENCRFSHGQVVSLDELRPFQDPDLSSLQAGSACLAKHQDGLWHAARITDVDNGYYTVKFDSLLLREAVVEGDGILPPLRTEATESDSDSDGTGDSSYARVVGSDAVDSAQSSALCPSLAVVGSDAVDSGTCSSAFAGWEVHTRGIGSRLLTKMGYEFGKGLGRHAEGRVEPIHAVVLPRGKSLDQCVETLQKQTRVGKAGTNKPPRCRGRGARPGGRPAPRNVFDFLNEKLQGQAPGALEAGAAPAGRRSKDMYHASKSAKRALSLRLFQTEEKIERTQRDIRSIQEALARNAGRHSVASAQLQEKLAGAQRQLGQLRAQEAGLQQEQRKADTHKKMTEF
B5: Medium-chain acyl-CoA ligase ACSF2, mitochondrial (Homo sapiens), Q96CM8 (parent)
chain: MAVYVGMLRLGRLCAGSSGVLGARAALSRSWQEARLQGVRFLSSREVDRMVSTPIGGLSYVQGCTKKHLNSKTVGQCLETTAQRVPEREALVVLHEDVRLTFAQLKEEVDKAASGLLSIGLCKGDRLGMWGPNSYAWVLMQLATAQAGIILVSVNPAYQAMELEYVLKKVGCKALVFPKQFKTQQYYNVLKQICPEVENAQPGALKSQRLPDLTTVISVDAPLPGTLLLDEVVAAGSTRQHLDQLQYNQQFLSCHDPINIQFTSGTTGSPKGATLSHYNIVNNSNILGERLKLHEKTPEQLRMILPNPLYHCLGSVAGTMMCLMYGATLILASPIFNGKKALEAISRERGTFLYGTPTMFVDILNQPDFSSYDISTMCGGVIAGSPAPPELIRAIINKINMKDLVVAYGTTENSPVTFAHFPEDTVEQKAESVGRIMPHTEARIMNMEAGTLAKLNTPGELCIRGYCVMLGYWGEPQKTEEAVDQDKWYWTGDVATMNEQGFCKIVGRSKDMIIRGGENIYPAELEDFFHTHPKVQEVQVVGVKDDRMGEEICACIRLKDGEETTVEEIKAFCKGKISHFKIPKYIVFVTNYPLTISGKIQKFKLREQMERHLNL
partner: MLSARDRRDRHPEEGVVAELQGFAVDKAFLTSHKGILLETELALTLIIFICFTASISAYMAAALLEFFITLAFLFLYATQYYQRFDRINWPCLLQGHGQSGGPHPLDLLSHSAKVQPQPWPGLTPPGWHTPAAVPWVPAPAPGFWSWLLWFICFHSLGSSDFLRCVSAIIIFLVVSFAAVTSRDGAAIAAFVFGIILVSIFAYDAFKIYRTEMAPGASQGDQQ

Variants of: B1
Details: with ribc2_human RIBC2, Q9H4K1

| Variant | effect of a mutation on the interaction |
| --- | --- |
| L30V | with no effect |

Variants of: B2
Details: with fbf1_human FBF1, Q8TES7

| Variant | effect of a mutation on the interaction |
| --- | --- |
| D177N | with no effect |

Variants of: B2
Details: with fbf1_human FBF1, Q8TES7
Remark: another data set of the same source

| Variant | effect of a mutation on the interaction |
| --- | --- |
| R164H | with no effect |

Variants of: B3
Details: with ca216_human C1orf216, Q8TAB5

| Variant | effect of a mutation on the interaction |
| --- | --- |
| T899A | with no effect |

Variants of: B4
Details: with zgpat_human ZGPAT

| Variant | effect of a mutation on the interaction |
| --- | --- |
| L12H | disrupting interaction strength |

Variants of: B5
Details: with cklf5_human CMTM5, Q96DZ9

| Variant | effect of a mutation on the interaction |
| --- | --- |
| G19W | disrupting interaction strength |

From IntAct's records for PubMed 31515488
